The values below are quoted from earlier work in publication PMC6844576.

For the data set, the target named is IL-6 receptor (Homo sapiens) (UniProt P08887). The experiment in a line: 125I-rhIL-6 radioligand binding.
Sequence of UniProt P08887 (P08887 20-365): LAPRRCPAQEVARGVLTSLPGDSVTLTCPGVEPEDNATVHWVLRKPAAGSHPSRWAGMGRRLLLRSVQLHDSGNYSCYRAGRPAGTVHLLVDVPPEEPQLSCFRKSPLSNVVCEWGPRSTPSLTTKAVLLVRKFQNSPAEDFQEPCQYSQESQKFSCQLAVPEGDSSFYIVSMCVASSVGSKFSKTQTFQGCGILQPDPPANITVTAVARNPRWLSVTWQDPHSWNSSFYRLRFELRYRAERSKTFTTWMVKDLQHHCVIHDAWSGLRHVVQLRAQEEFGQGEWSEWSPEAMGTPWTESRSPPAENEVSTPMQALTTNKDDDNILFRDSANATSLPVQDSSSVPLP

Consider interleukin-6 (from UniProt P05231), for which the Kd – broadly, the equilibrium constant for the complex coming apart – was 0.44 nM.
